Laboratory results reported in patent US20240156928A1.

Biological target: CD19 (UniProt P15391)
Assay: cell-based or functional assay

- intracellular IFNγ staining, percent of T cells: 30%
Substance: CD19R:CD28:z(CO) CAR with L235E and N297Q in the IgG4 spacer (CD19R(EQ))
